Experimental data from paper PMC13438699 (Nature Communications, 2026).

B1: HB31 wild type (WT) Fab (Fab, V domains shown)
VH: EVQLLESGGGLVQPGGSLRLSCTVSGFTSSNYDMSWVRQAPGKGLEWVSGISGTGRDTYYADSVKGRFTISRDNSKNTLSLQMNSLRADDTAVYFCARDRPVLRYFDWQPYGLDVWGKGTTVTVSS
VL: QSALTQPPSASGSPGQSVTISCTGTSSDVGGYNYVSWYQQYPSKAPKLMIYEVSKRPSGVPDRFSGSKSGNTASLTVSGLQAEDEADYYCNSYAGSNLYVFGTGTKVTVL
notes: also called HB31 WT Fab; HB31 Fab; source: Expi293F, transiently co-transfected, purified (CaptureSelect CH1-XL)
B2: HB31 wild type (WT) IgG (antibody, V domains shown)
VH: B1 VH
VL: B1 VL
notes: copies: 2 + 2

Molecular target: H1 stem (#4900), HA stem construct derived from the A/Brisbane/59/2007 (H1N1) HA (Designed HA stem #4900 from influenza A …, stabilised)
Experiment: BLI
Details: both partners purified

Binder	Kd
B1	4.3 nM
B2	2.7 nM
